Here are results for 2 molecules from paper PMC10127577 (2023).

In this assay the target is T1, CDTb protoxin (proCDTb), CDTb residues 43 to 876 (Clostridioides difficile, UniProt O32739 43-876).
T1 chain: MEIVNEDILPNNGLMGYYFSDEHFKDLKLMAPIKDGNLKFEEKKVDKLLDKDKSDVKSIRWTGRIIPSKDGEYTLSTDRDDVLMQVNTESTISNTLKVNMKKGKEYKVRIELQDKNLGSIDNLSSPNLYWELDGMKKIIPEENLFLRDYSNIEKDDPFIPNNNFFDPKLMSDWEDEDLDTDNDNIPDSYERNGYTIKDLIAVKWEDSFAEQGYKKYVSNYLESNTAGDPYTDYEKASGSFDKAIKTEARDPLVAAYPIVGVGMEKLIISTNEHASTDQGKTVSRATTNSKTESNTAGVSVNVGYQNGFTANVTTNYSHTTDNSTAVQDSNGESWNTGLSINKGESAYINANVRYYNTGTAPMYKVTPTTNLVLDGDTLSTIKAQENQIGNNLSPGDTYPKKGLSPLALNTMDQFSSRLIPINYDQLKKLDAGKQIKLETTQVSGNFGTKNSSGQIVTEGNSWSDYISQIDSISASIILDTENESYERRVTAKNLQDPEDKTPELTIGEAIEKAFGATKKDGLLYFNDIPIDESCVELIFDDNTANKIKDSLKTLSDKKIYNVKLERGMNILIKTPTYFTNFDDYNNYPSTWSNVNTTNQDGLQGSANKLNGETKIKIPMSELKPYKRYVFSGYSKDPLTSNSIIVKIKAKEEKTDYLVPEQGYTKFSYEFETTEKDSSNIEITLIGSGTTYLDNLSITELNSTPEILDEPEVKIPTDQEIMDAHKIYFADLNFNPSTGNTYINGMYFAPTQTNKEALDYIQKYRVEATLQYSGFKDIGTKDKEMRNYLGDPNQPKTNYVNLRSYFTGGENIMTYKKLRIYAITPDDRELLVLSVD
As to the kind of experiment: SPR. For orientation: Surface plasmon resonance follows binding to a sensor surface in real time, without labels.

Usually koff stands for the first-order rate constant of dissociation. Read a high koff as a short-lived complex.

B1: BINTOXB/9 Fab (Fab, V domains shown)
VH: QVQLQQSGAELARPGASVKMSCKASGYTFTSYTMHWVKQRPGQGLEWIGYINPSNDYTSYNQKFKDKATLTADKSSSTAYMQLSSLTSEDSAVYYCARCWGYDPYYFDYWGQGTTLTVSS
VL: DIVMSQSPSLLAVSAGEKVTMSCKSSQSLLNSRTRKNYLAWYQQKPGQSPKVLIYWASTRESGVPDRFTGSGSGTDFTLTISSVQAEDLAVYYCKQSYNLLTFGAGTKLELK
B1 had a koff of 0.000227 s⁻¹.

B2: BINTOXB/22 Fab (Fab, V domains shown)
VH: QIQLVQSGPELKKPGETVKISCKASGYTFTNYGMNWVKQAPGKDLKWMGWMSTYTGEPTYADDFKGRFAFSLETSASTAYLQINNLKNEDMATYFCARRGNYLSFDYWGQGTTLTVSS
VL: DIVMTQSHKFMSTSVGDRVSITCKASQDVSTAVGWYQQKPGQSPKLLIYSASYRYTGVPDRFTGSGSGTDFTFTISSVQAEDLAVYYCQQHYSPPFTFGSGTELEIK
As to B2, the koff was 0.00299 s⁻¹.
